Molecular target: the molecule itself
Assay: SEC

B1: human spastin amino acids 228-616 containing the E442Q mutation (domain or fragment, UniProt Q9UBP0 228-616, looked up)
chain: ESGAVPKRKDPLTHTSNSLPRSKTVMKTGSAGLSGHHRAPSYSGLSMVSGVKQGSGPAPTTHKGTPKTNRTNKPSTPTTATRKKKDLKNFRNVDSNLANLIMNEIVDNGTAVKFDDIAGQDLAKQALQEIVILPSLRPELFTGLRAPARGLLLFGPPGNGKTMLAKAVAAESNATFFNISAASLTSKYVGEGEKLVRALFAVARELQPSIIFIDQVDSLLCERREGEHDASRRLKTEFLIEFDGVQSAGDDRVLVMGATNRPQELDEAVLRRFIKRVYVSLPNEETRLLLLKNLLCKQGSPLTQKELAQLARMTDGYSGSDLTALAKDAALGPIRELKPEQVKNMSASEMRNIRLSDFTESLKKIKRSVSPQTLEAYIRWNKDFGDTTV
Question: For B1, which “stoichiometry N” value is on record?
Answer: The value was 6.

From paper PMC3411929 (Journal of structural biology, 2012)
